The results in this text go back to publication PMC11969024 (2025).

Sequences and labels used below:
B1: peptide HD2 (from tick evasin EVA4) / CCL18 (biotinylated, synthetic) (parent complex)
chain 1: EEDDYTAYAPLTCYFT
chain 2: AQVGTNKELCCLVYTSWQIPQKFIVDYSETSPQCPKPGVILLTKRGRQICADPNKKWVQKYISDLKLNA
B2: peptide HD2 (from tick evasin EVA4) / CCL8 (biotinylated, synthetic) (parent complex)
chain 1: EEDDYTAYAPLTCYFT
chain 2: QPDSVSIPITCCFNVINRKIPIQRLESYTRITNIQCPKEAVIFKTKRGKEVCADPKERWVRDSMKHLDQIFQNLKP

In one assay the parent is B1.
Regarding chain 1 EEDDYTAMAPLTCYFT [chain 1 Y8M], the enrichment is -6.37 log2 (difference from the parental peptide).

In the case of chain 1 EEDDYTAAAPLTCYFT [chain 1 Y8A], the enrichment was 0.303 log2 (difference from the parental peptide).

Consider chain 1 EEYDYTAYAPLTCYFT [chain 1 D3Y], for which the enrichment was -1.47 log2 (difference from the parental peptide).

Take chain 1 EEHDYTAYAPLTCYFT [chain 1 D3H]: the enrichment was -1.21 log2 (difference from the parental peptide).

With chain 1 EEPDYTAYAPLTCYFT [chain 1 D3P], the enrichment was 0.322 log2 (difference from the parental peptide).

As to chain 1 ECDDYTAYAPLTCYFT [chain 1 E2C], the enrichment was -10.2 log2 (difference from the parental peptide).

On to chain 1 EEDDYTAYAPLTYYFT [chain 1 C13Y], for which the enrichment is -5.14 log2 (difference from the parental peptide).

Take chain 1 EEDTYTAYAPLTCYFT [chain 1 D4T]: the enrichment was -3.75 log2 (difference from the parental peptide).

chain 1 EEDLYTAYAPLTCYFT [chain 1 D4L]: the enrichment was -2.06 log2 (difference from the parental peptide).

Regarding chain 1 EEDMYTAYAPLTCYFT [chain 1 D4M], the enrichment is -1.48 log2 (difference from the parental peptide).

In the case of chain 1 EEDDYTAYAPLTCYYT [chain 1 F15Y], the enrichment is 1.67 log2 (difference from the parental peptide).

Regarding chain 1 EEDDGTAYAPLTCYFT [chain 1 Y5G], the enrichment was -3.5 log2 (difference from the parental peptide).

With chain 1 EEDDSTAYAPLTCYFT [chain 1 Y5S], the enrichment is -3.37 log2 (difference from the parental peptide).

On to chain 1 EEDDCTAYAPLTCYFT [chain 1 Y5C], for which the enrichment was -5.9 log2 (difference from the parental peptide).

As for chain 1 EEDDYTAYAPLTCYFI [chain 1 T16I], the enrichment is -0.207 log2 (difference from the parental peptide).

For the variant chain 1 EEDDYQAYAPLTCYFT [chain 1 T6Q], the enrichment was 1.41 log2 (difference from the parental peptide).

As for chain 1 EEDDYTAYAPLTCRFT [chain 1 Y14R], the enrichment is -6.83 log2 (difference from the parental peptide).

Turning to chain 1 EEDDYTAYAPLTCLFT [chain 1 Y14L], the enrichment was -2.62 log2 (difference from the parental peptide).

In the case of chain 1 EEDDYTAYAPLGCYFT [chain 1 T12G], the enrichment was -8.91 log2 (difference from the parental peptide).

As for chain 1 EEDDYTAYAPLQCYFT [chain 1 T12Q], the enrichment was -0.825 log2 (difference from the parental peptide).

As to chain 1 TEDDYTAYAPLTCYFT [chain 1 E1T], the enrichment was -0.938 log2 (difference from the parental peptide).

Take chain 1 VEDDYTAYAPLTCYFT [chain 1 E1V]: the enrichment is -1.49 log2 (difference from the parental peptide).

Consider chain 1 FEDDYTAYAPLTCYFT [chain 1 E1F], for which the enrichment was -2.72 log2 (difference from the parental peptide).

Variants of B2 are the subject of another assay.
With chain 1 T16A, the enrichment was 1.43 log2 (difference from the parental peptide).

Consider chain 1 T16Q, for which the enrichment was 1.96 log2 (difference from the parental peptide).

As to chain 1 T16L, the enrichment was 0.738 log2 (difference from the parental peptide).

For chain 1 T16F, the enrichment was 0.115 log2 (difference from the parental peptide).

For the variant chain 1 T16H, the enrichment is 0.233 log2 (difference from the parental peptide).

Consider chain 1 T16S, for which the enrichment is 1.37 log2 (difference from the parental peptide).

On to chain 1 T16I, for which the enrichment is 0.743 log2 (difference from the parental peptide).

As to chain 1 T16R, the enrichment is 0.603 log2 (difference from the parental peptide).

For the variant chain 1 T16P, the enrichment is 1.42 log2 (difference from the parental peptide).

As to chain 1 D3E, the enrichment was 0.904 log2 (difference from the parental peptide).

As to chain 1 D3S, the enrichment is -2.23 log2 (difference from the parental peptide).

For the variant chain 1 D3T, the enrichment is -3.23 log2 (difference from the parental peptide).

With chain 1 D4M, the enrichment is -3.9 log2 (difference from the parental peptide).

For the variant chain 1 D4W, the enrichment is -3.2 log2 (difference from the parental peptide).

With chain 1 D4Q, the enrichment is -1.83 log2 (difference from the parental peptide).

With chain 1 D4Y, the enrichment was -2.68 log2 (difference from the parental peptide).

Regarding chain 1 D4I, the enrichment is -3.36 log2 (difference from the parental peptide).

For chain 1 Y8M, the enrichment is -6.01 log2 (difference from the parental peptide).

On to chain 1 Y8R, for which the enrichment is -6.7 log2 (difference from the parental peptide).

On to chain 1 Y8T, for which the enrichment was -8 log2 (difference from the parental peptide).

For chain 1 Y8L, the enrichment was -7.29 log2 (difference from the parental peptide).

chain 1 Y8C: the enrichment was -9.2 log2 (difference from the parental peptide).

With chain 1 Y8I, the enrichment was -8.9 log2 (difference from the parental peptide).

Regarding chain 1 Y8V, the enrichment was -4.32 log2 (difference from the parental peptide).

As for chain 1 T12Y, the enrichment was -0.212 log2 (difference from the parental peptide).

For chain 1 T12N, the enrichment is 0.576 log2 (difference from the parental peptide).

As for chain 1 T12K, the enrichment is -0.15 log2 (difference from the parental peptide).

In the case of chain 1 T12C, the enrichment was -5.83 log2 (difference from the parental peptide).

For the variant chain 1 T12E, the enrichment was -0.507 log2 (difference from the parental peptide).

Consider chain 1 T12W, for which the enrichment is -1.55 log2 (difference from the parental peptide).

In the case of chain 1 T12S, the enrichment is 0.405 log2 (difference from the parental peptide).

Turning to chain 1 T12R, the enrichment was 0.0146 log2 (difference from the parental peptide).

As to chain 1 C13I, the enrichment is -0.427 log2 (difference from the parental peptide).

With chain 1 C13L, the enrichment is -1.06 log2 (difference from the parental peptide).

As to chain 1 C13A, the enrichment is -2.32 log2 (difference from the parental peptide).

Consider chain 1 C13Y, for which the enrichment is -0.338 log2 (difference from the parental peptide).

Turning to chain 1 C13E, the enrichment was -4.45 log2 (difference from the parental peptide).

For chain 1 C13G, the enrichment is -1.56 log2 (difference from the parental peptide).

Take chain 1 C13F: the enrichment was -0.473 log2 (difference from the parental peptide).

For chain 1 F15E, the enrichment is 1.9 log2 (difference from the parental peptide).

In the case of chain 1 F15L, the enrichment is 1.43 log2 (difference from the parental peptide).

As to chain 1 F15R, the enrichment was 1.7 log2 (difference from the parental peptide).

For chain 1 F15G, the enrichment was 0.793 log2 (difference from the parental peptide).

On to chain 1 F15I, for which the enrichment is 1.54 log2 (difference from the parental peptide).

As to chain 1 F15T, the enrichment is 2.65 log2 (difference from the parental peptide).

Turning to chain 1 F15M, the enrichment is 2.61 log2 (difference from the parental peptide).

In the case of chain 1 F15D, the enrichment is 0.871 log2 (difference from the parental peptide).

In the case of chain 1 F15Q, the enrichment was 2.57 log2 (difference from the parental peptide).

chain 1 F15A: the enrichment was 2.51 log2 (difference from the parental peptide).

In the case of chain 1 F15K, the enrichment is 2.15 log2 (difference from the parental peptide).

With chain 1 E2R, the enrichment is -3.19 log2 (difference from the parental peptide).

For the variant chain 1 E2W, the enrichment is -1.39 log2 (difference from the parental peptide).

chain 1 E2Q: the enrichment is -2.83 log2 (difference from the parental peptide).

As for chain 1 E2N, the enrichment is -1.75 log2 (difference from the parental peptide).

For chain 1 E2K, the enrichment was -2.67 log2 (difference from the parental peptide).

Turning to chain 1 A7N, the enrichment is 1.02 log2 (difference from the parental peptide).

chain 1 A7H: the enrichment was -0.321 log2 (difference from the parental peptide).

For the variant chain 1 A7T, the enrichment was 0.325 log2 (difference from the parental peptide).

As for chain 1 A7Y, the enrichment was -0.0899 log2 (difference from the parental peptide).

For the variant chain 1 A7G, the enrichment is 0.697 log2 (difference from the parental peptide).

Consider chain 1 A7Q, for which the enrichment was 0.712 log2 (difference from the parental peptide).

In the case of chain 1 A7R, the enrichment was -0.287 log2 (difference from the parental peptide).

For chain 1 A7F, the enrichment was -0.605 log2 (difference from the parental peptide).

For chain 1 A7L, the enrichment is 0.505 log2 (difference from the parental peptide).

Consider chain 1 P10E, for which the enrichment was -7.42 log2 (difference from the parental peptide).

With chain 1 P10W, the enrichment was -8.37 log2 (difference from the parental peptide).

Consider chain 1 P10T, for which the enrichment is -7.38 log2 (difference from the parental peptide).

For chain 1 P10S, the enrichment was -8.71 log2 (difference from the parental peptide).

chain 1 P10N: the enrichment was -7.54 log2 (difference from the parental peptide).

As to chain 1 Y14I, the enrichment was 1.29 log2 (difference from the parental peptide).

Regarding chain 1 Y14L, the enrichment was 0.559 log2 (difference from the parental peptide).

On to chain 1 Y14N, for which the enrichment is 0.255 log2 (difference from the parental peptide).

Regarding chain 1 Y14M, the enrichment is 1.03 log2 (difference from the parental peptide).

With chain 1 Y14P, the enrichment was -2.37 log2 (difference from the parental peptide).

As for chain 1 Y14W, the enrichment was 0.518 log2 (difference from the parental peptide).

As for chain 1 Y14A, the enrichment was -0.507 log2 (difference from the parental peptide).

For the variant chain 1 Y14C, the enrichment is -2.25 log2 (difference from the parental peptide).

Turning to chain 1 Y5N, the enrichment is -4.9 log2 (difference from the parental peptide).

With chain 1 Y5F, the enrichment was -0.0383 log2 (difference from the parental peptide).

For the variant chain 1 Y5W, the enrichment is -0.0149 log2 (difference from the parental peptide).

As for chain 1 Y5T, the enrichment is -4.38 log2 (difference from the parental peptide).

For the variant chain 1 Y5E, the enrichment was -1.42 log2 (difference from the parental peptide).

For the variant chain 1 Y5P, the enrichment was -6.25 log2 (difference from the parental peptide).

With chain 1 Y5V, the enrichment was -3.14 log2 (difference from the parental peptide).

As for chain 1 Y5D, the enrichment was -3.76 log2 (difference from the parental peptide).

In the case of chain 1 Y5I, the enrichment is -2.45 log2 (difference from the parental peptide).

With chain 1 L11R, the enrichment was 1.57 log2 (difference from the parental peptide).

Regarding chain 1 L11A, the enrichment was 0.754 log2 (difference from the parental peptide).

For chain 1 L11C, the enrichment is 1.32 log2 (difference from the parental peptide).

As to chain 1 L11D, the enrichment was -2.06 log2 (difference from the parental peptide).

Turning to chain 1 L11K, the enrichment was 1.95 log2 (difference from the parental peptide).

For chain 1 T6H, the enrichment was -0.816 log2 (difference from the parental peptide).

Turning to chain 1 T6E, the enrichment was 2.76 log2 (difference from the parental peptide).

For the variant chain 1 T6D, the enrichment was 2.7 log2 (difference from the parental peptide).

chain 1 T6R: the enrichment is -0.801 log2 (difference from the parental peptide).

Take chain 1 T6K: the enrichment was -1.83 log2 (difference from the parental peptide).

For the variant chain 1 T6Y, the enrichment was -0.847 log2 (difference from the parental peptide).

As for chain 1 T6W, the enrichment is -0.802 log2 (difference from the parental peptide).

For chain 1 T6L, the enrichment is -2.32 log2 (difference from the parental peptide).

As to chain 1 T6F, the enrichment was -4.21 log2 (difference from the parental peptide).

chain 1 T6G: the enrichment was 2.04 log2 (difference from the parental peptide).

As to chain 1 E1T, the enrichment was -1.11 log2 (difference from the parental peptide).

As for chain 1 E1F, the enrichment is -2.08 log2 (difference from the parental peptide).

Consider chain 1 E1W, for which the enrichment is -2.25 log2 (difference from the parental peptide).

Turning to chain 1 E1N, the enrichment was -0.349 log2 (difference from the parental peptide).

chain 1 E1H: the enrichment is -1.32 log2 (difference from the parental peptide).

Take chain 1 E1I: the enrichment was -1.02 log2 (difference from the parental peptide).

With chain 1 E1K, the enrichment is -2.59 log2 (difference from the parental peptide).

chain 1 E1M: the enrichment was -0.394 log2 (difference from the parental peptide).

Turning to chain 1 E1S, the enrichment is -0.455 log2 (difference from the parental peptide).

Turning to chain 1 A9S, the enrichment was 0.31 log2 (difference from the parental peptide).

Turning to chain 1 A9V, the enrichment was -3.26 log2 (difference from the parental peptide).

Take chain 1 A9M: the enrichment is -1.3 log2 (difference from the parental peptide).

chain 1 A9K: the enrichment was -1.29 log2 (difference from the parental peptide).

For the variant chain 1 A9Q, the enrichment was 0.272 log2 (difference from the parental peptide).

chain 1 A9G: the enrichment is -0.437 log2 (difference from the parental peptide).

On to chain 1 A9T, for which the enrichment is -0.868 log2 (difference from the parental peptide).

Consider chain 1 A9Y, for which the enrichment was -4.23 log2 (difference from the parental peptide).

As to chain 1 A9C, the enrichment was -9.61 log2 (difference from the parental peptide).
